Experimental data taken from PMC2814526 (Journal of immunology (Baltimore, Md. : 1950), 2009).
Values belong to the molecule of their own block, whether it stands above or below them.

Experiments:
[1] = biological target: hIL-15Rβ-mγc on 32Dβ cells (human | mouse (endogenous in 32D)) (UniProt P14784)
[2] = biological target: hIL-15Rβ-mγc on 32Dβ cells (human | mouse (endogenous in 32D)) (UniProt P14784); remark: listed apart in the source
[3] = biological target: hIL-15Rα-hIL-15Rβ-hγc complex on TF-1β cells (human (endogenous in TF-1) | human) (UniProt Q13261)
[4] = biological target: hIL-15Rβ-mγc on 32Dβ cells (human | mouse (endogenous in 32D)) (UniProt P14784); remark: listed apart in the source
[5] = biological target: mouse IL-15 receptor complex (mIL-15Rα-mIL-15Rβ-mγc) on CTLL-2 cells (mouse) (UniProt Q60819)
[6] = biological target: hIL-15Rα and hγc on TF-1 cells (human (endogenous in TF-1)) (UniProt Q13261); assay: flow cytometry on cells
[7] = biological target: c264scTCR/hIL-15 fusion protein (human, UniProt P40933 49-162); assay: ELISA
[8] = biological target: recombinant human IL-15 (human, UniProt P40933 49-162); assay: ELISA

Chain of hIL-15Rβ-mγc on 32Dβ cells (human | mouse (endogenous in 32D)) (P14784 27-551, chain 1 of 2): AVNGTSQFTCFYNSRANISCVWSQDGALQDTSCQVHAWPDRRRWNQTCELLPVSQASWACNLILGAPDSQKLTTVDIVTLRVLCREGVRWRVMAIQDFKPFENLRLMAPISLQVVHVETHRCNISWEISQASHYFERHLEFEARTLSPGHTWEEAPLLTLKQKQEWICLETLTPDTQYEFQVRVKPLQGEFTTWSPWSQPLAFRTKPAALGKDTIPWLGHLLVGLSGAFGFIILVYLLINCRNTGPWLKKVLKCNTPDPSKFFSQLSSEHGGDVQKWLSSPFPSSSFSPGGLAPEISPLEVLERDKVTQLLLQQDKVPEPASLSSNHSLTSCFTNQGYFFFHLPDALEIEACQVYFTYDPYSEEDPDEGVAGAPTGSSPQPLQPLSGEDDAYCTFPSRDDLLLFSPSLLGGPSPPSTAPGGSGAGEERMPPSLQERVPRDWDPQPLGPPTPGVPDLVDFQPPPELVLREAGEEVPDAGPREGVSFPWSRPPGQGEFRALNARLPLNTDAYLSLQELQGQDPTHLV
Chain of hIL-15Rβ-mγc on 32Dβ cells (human | mouse (endogenous in 32D)) (P34902 23-369, chain 2 of 2, further chain): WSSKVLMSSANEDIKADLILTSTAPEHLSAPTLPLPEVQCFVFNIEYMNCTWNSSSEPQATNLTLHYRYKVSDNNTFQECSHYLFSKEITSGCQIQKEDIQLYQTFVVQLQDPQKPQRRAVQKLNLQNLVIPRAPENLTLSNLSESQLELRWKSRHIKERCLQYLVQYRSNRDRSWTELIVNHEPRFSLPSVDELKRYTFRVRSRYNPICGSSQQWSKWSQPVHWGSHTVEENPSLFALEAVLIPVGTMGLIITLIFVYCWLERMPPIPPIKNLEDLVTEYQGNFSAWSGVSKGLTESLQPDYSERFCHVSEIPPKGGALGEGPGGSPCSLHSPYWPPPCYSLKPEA
Chain of mouse IL-15 receptor complex (mIL-15Rα-mIL-15Rβ-mγc) on CTLL-2 cells (mouse) (Q60819 33-263, chain 1 of 3): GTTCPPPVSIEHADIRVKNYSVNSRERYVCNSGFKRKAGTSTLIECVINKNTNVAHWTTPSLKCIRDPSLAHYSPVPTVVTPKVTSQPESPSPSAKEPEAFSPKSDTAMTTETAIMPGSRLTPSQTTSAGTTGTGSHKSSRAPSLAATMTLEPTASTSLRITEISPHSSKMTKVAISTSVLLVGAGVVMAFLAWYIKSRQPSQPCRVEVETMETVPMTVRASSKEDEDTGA
Chain of mouse IL-15 receptor complex (mIL-15Rα-mIL-15Rβ-mγc) on CTLL-2 cells (mouse) (P16297 27-539, chain 2 of 3, further chain): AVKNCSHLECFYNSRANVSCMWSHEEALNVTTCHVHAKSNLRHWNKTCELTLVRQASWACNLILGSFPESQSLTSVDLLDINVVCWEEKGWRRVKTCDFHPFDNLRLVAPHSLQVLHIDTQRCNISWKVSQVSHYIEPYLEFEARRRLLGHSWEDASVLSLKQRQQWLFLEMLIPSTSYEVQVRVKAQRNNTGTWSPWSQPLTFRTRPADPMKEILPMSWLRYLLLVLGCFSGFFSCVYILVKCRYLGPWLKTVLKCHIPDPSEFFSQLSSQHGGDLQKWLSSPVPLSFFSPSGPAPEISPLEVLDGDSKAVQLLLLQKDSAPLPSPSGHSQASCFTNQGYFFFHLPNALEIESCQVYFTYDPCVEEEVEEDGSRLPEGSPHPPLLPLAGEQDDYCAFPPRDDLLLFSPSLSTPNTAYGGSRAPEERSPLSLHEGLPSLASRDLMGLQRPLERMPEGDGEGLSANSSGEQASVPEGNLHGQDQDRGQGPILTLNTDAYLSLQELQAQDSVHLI
Chain of mouse IL-15 receptor complex (mIL-15Rα-mIL-15Rβ-mγc) on CTLL-2 cells (mouse) (P34902 23-369, chain 3 of 3, further chain): as the sequence (P34902 23-369, chain 2 of 2, further chain) above

- EC50 of the decrease in apoptosis of 32Dβ cells (Annexin V, 48 h) [1]: 7.8 pM
- EC50 on 32Dβ cell proliferation, rhIL-15N72D alone [2]: 16.2 pM
- EC50 of TF-1β cell proliferation (WST-1, 48 h) [3]: 4.8 pM
- EC50 of 32Dβ cell proliferation (WST-1, 48 h) [4]: 39.9 pM
- EC50 of CTLL-2 cell proliferation (WST-1, 48 h) [5]: 9.2 pM
- IC50 [6]: 0.0175 nM
Molecule: recombinant human IL-15 N72D mutein (ligand)

- EC50 of 32Dβ cell proliferation (WST-1, 48 h) [4]: 79 pM
- EC50 of CTLL-2 cell proliferation (WST-1, 48 h) [5]: 18.4 pM
Molecule: c264scTCR/hIL-15N72D fusion protein (ligand)

- binding result [7]: binds
- binding result [8]: binds
B1: c264scTCR/hIL-15RαSu fusion protein (domain or fragment, human, UniProt Q13261 31-95, looked up)
chain: ITCPPPMSVEHADIWVKSYSLYSRERYICNSGFKRKAGTSSLTECVLNKATNVAHWTTPSLKCIR
